According to publication doi:10.1101/2020.11.11.367672 (bioRxiv, 2020):
Values belong to the binder of their own block, whether it stands above or below them.

How the values were obtained:
Assay in all cases: pull-down
[1] = biological target: GST (glutathione-S-transferase)-tagged RPAP3 (human, UniProt Q9H6T3 1-665)
[2] = biological target: RPAP3 TPR1 domain (residues 133-255) (human, UniProt Q9H6T3 133-255)
Dicer 256-595 domain = biological target: T1, Dicer 256-595 domain (human, UniProt Q9UPY3 256-595)
T1 sequence: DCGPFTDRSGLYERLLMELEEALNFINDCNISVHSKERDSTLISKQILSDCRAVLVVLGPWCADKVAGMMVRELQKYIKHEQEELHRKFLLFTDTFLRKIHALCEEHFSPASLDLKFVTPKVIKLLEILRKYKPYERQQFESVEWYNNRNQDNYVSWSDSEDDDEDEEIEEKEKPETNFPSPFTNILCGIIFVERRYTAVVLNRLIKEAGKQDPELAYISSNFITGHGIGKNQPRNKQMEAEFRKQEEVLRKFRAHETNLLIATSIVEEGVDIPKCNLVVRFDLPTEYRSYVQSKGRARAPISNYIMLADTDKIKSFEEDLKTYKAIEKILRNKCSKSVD

Chain of RPAP3 TPR1 domain (residues 133-255) (Q9H6T3 133-255): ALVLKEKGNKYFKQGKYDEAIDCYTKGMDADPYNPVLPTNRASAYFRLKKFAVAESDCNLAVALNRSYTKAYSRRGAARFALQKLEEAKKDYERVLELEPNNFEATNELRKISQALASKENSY
Chain of GST (glutathione-S-transferase)-tagged RPAP3 (Q9H6T3 whole entry, the tested form may be a part): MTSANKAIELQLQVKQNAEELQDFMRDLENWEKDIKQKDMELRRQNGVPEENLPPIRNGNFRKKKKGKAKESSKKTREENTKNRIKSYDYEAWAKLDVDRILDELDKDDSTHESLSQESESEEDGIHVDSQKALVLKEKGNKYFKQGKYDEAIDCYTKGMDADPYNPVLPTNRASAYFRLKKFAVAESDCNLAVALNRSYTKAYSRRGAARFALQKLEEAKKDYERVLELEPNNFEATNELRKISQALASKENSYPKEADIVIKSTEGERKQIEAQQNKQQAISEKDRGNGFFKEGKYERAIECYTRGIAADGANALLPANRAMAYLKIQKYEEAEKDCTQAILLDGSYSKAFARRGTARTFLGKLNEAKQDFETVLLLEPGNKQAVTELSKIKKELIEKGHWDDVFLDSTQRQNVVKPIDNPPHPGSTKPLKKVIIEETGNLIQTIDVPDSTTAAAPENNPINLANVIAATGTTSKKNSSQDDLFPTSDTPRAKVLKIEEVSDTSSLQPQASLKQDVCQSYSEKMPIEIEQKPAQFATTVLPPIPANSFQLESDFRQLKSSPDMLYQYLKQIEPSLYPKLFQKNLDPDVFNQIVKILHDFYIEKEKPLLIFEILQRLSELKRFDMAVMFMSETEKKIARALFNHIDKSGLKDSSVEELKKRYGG

binding result [1]: binds
B1: His6-tagged TRBP protein (purified recombinant, GST pull-down) (natural protein)
chain: MSEEEQGSGTTTGCGLPSIEQMLAANPGKTPISLLQEYGTRIGKTPVYDLLKAEGQAHQPNFTFRVTVGDTSCTGQGPSKKAAKHKAAEVALKHLKGGSMLEPALEDSSSFSPLDSSLPEDIPVFTAAAAATPVPSVVLTRSPPMELQPPVSPQQSECNPVGALQELVVQKGWRLPEYTVTQESGPAHRKEFTMTCRVERFIEIGSGTSKKLAKRNAAAKMLLRVHTVPLDARDGNEVEPDDDHFSIGVGSRLDGLRNRGPGCTWDSLRNSVGEKILSLRSCSLGSLGALGPACCRVLSELSEEQAFHVSYLDIEELSLSGLCQCLVELSTQPATVCHGSATTREAARGEAARRALQYLKIMAGSK

binding result [2]: binds
binding result (Dicer 256-595 domain): binds
B2: His6-tagged TRBP dsRBD3 (262-366) (domain or fragment)
chain: GCTWDSLRNSVGEKILSLRSCSLGSLGALGPACCRVLSELSEEQAFHVSYLDIEELSLSGLCQCLVELSTQPATVCHGSATTREAARGEAARRALQYLKIMAGSK
